Literature values as cited in publication PMC6136348, “In the quest for new targets for pathogen eradication: the adenylosuccinate synthetase from the bacterium Helicobacter pylori” (Journal of Enzyme Inhibition and Medicinal Chemistry, 2018).

Molecular target: Adenylosuccinate synthetase (Escherichia coli) (UniProt P0A7D4)

Sequence of Adenylosuccinate synthetase (P0A7D4 2-432): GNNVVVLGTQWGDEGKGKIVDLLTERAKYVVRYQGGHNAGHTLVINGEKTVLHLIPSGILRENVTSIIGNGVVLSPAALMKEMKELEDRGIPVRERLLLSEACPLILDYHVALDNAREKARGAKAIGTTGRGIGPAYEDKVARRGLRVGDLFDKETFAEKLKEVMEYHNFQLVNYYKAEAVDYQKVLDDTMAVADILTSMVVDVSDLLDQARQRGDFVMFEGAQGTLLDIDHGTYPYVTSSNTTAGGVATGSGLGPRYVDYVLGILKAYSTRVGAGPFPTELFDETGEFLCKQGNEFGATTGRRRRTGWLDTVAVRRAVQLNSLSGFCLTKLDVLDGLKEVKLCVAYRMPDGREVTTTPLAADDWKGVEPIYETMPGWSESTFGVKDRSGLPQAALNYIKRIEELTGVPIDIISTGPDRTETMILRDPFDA

Substance: Adenylosuccinate synthetase (from UniProt P0A7D4)
- Kd: 10 µM
